“And” between values parts separate entries of the source, which are not always exact repeats. Identical values can stand only once.
B1: recombinant tissue-type plasminogen activator (tPA) (enzyme, human, UniProt P00750 36-562, looked up)
chain: SYQVICRDEKTQMIYQQHQSWLRPVLRSNRVEYCWCNSGRAQCHSVPVKSCSEPRCFNGGTCQQALYFSDFVCQCPEGFAGKCCEIDTRATCYEDQGISYRGTWSTAESGAECTNWNSSALAQKPYSGRRPDAIRLGLGNHNYCRNPDRDSKPWCYVFKAGKYSSEFCSTPACSEGNSDCYFGNGSAYRGTHSLTESGASCLPWNSMILIGKVYTAQNPSAQALGLGKHNYCRNPDGDAKPWCHVLKNRRLTWEYCDVPSCSTCGLRQYSQPQFRIKGGLFADIASHPWQAAIFAKHRRSPGERFLCGGILISSCWILSAAHCFQERFPPHHLTVILGRTYRVVPGEEEQKFEVEKYIVHKEFDDDTYDNDIALLQLKSDSSRCAQESSVVRTVCLPPADLQLPDWTECELSGYGKHEALSPFYSERLKEAHVRLYPSSRCTSQHLLNRTVTDNMLCAGDTRSGGPQANLHDACQGDSGGPLVCLNDGRMTLVGIISWGLGCGQKDVPGVYTKVTNYLDWIRDNMRP
notes: Commercial full-length recombinant tPA; also called Alteplase; Actilyse
B3: human factor XII (Hageman factor) (enzyme, UniProt P00748 20-615, looked up)
chain: IPPWEAPKEHKYKAEEHTVVLTVTGEPCHFPFQYHRQLYHKCTHKGRPGPQPWCATTPNFDQDQRWGYCLEPKKVKDHCSKHSPCQKGGTCVNMPSGPHCLCPQHLTGNHCQKEKCFEPQLLRFFHKNEIWYRTEQAAVARCQCKGPDAHCQRLASQACRTNPCLHGGRCLEVEGHRLCHCPVGYTGAFCDVDTKASCYDGRGLSYRGLARTTLSGAPCQPWASEATYRNVTAEQARNWGLGGHAFCRNPDNDIRPWCFVLNRDRLSWEYCDLAQCQTPTQAAPPTPVSPRLHVPLMPAQPAPPKPQPTTRTPPQSQTPGALPAKREQPPSLTRNGPLSCGQRLRKSLSSMTRVVGGLVALRGAHPYIAALYWGHSFCAGSLIAPCWVLTAAHCLQDRPAPEDLTVVLGQERRNHSCEPCQTLAVRSYRLHEAFSPVSYQHDLALLRLQEDADGSCALLSPYVQPVCLPSGAARPSETTLCQVAGWGHQFEGAEEYASFLQEAQVPFLSLERCSAPDVHGSSILPGMLCAGFLEGGTDACQGDSGGPLVCEDQAAERRLTLQGIISWGSGCGDRNKPGVYTDVAYYLAWIREHTVS
notes: also called FXII; fXII
B8: tPA-F-EGF-GST (finger and EGF domains of human tPA with C-terminal GST tag) (other, UniProt P00750 36-122, looked up)
chain: SYQVICRDEKTQMIYQQHQSWLRPVLRSNRVEYCWCNSGRAQCHSVPVKSCSEPRCFNGGTCQQALYFSDFVCQCPEGFAGKCCEID
notes: domain: F-EGF; also called F-EGF-tPA; not shown: vector residues and thrombin cleavage site; Schistosoma japonicum glutathion-S-transferase (GST) tag

Assays:
[1] = molecular target: T1, human amyloid-β peptide Aβ(1-40) (human); experiment: ELISA, Aβ coated on plate, tPA overlaid
T1 construct: also called hAβ(1-40); amyloid-β(1-40)
T1 sequence (peptide, as listed by the source): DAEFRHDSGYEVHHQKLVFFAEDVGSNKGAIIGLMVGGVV

[2] = molecular target: T2, advanced glycation end product-modified bovine serum albumin, glycated with glucose-6-phosphate (albumin-g6p) (bovine, UniProt P02769 25-607, glycated with glucose-6-phosphate (advanced glycation end products; 59 lysine and 23 arginine residues and the N-terminus are potential glycation sites)); experiment: kD of tPA binding to coated albumin-AGE, quoted for the competitive ELISA
T2 construct: adopts cross-β structure; also called albumin-AGE; glycated albumin
T2 sequence (P02769 25-607 limits assumed): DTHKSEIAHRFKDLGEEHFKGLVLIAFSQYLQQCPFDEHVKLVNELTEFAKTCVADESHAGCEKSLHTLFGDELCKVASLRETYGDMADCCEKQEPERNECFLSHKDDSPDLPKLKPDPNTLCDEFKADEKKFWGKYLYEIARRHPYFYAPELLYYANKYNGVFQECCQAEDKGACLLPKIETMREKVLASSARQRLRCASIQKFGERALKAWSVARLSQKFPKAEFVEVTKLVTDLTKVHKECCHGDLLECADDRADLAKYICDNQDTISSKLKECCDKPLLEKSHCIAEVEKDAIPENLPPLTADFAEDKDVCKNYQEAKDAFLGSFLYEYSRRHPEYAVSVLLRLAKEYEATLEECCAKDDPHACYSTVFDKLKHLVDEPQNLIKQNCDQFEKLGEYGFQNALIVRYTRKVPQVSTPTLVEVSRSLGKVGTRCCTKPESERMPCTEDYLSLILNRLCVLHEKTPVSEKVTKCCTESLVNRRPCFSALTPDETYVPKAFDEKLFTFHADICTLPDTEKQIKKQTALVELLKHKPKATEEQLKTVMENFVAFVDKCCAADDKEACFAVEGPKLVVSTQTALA

[3] = molecular target: T1, human amyloid-β peptide Aβ(1-40); experiment: ELISA on Exiqon plates
[4] = molecular target: T1, human amyloid-β peptide Aβ(1-40); experiment: kD of tPA binding to coated hAβ(1-40), quoted for the competitive ELISA
[5] = molecular target: T1, human amyloid-β peptide Aβ(1-40); experiment: ELISA, 25 µg/ml peptide immobilized on Exiqon plates
[6] = molecular target: B1; experiment: ELISA, immobilized peptide, 10 mM εACA
[7] = molecular target: T3, Fn F4-5-GST (finger domains 4-5 of human fibronectin with C-terminal GST tag) (human; Schistosoma japonicum, UniProt P02751 182-276); experiment: ELISA, immobilized peptide
T3 construct: domain: fibronectin type I domains 4-5; Printed in places as Fn F4-S-GST (a misprint of F4-5); also called Fn F4-S-GST; fibronectin F4-5; not shown: (G)RP vector residues and thrombin cleavage site; Schistosoma japonicum glutathion-S-transferase (GST) tag
T3 sequence (P02751 182-276, tags left off): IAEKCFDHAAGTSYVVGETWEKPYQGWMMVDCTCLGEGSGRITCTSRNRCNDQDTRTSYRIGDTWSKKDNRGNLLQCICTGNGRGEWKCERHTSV

[8] = molecular target: B3; experiment: ELISA, immobilized peptide
[9] = molecular target: B3; experiment: ELISA, factor XII immobilized, β2gpi concentration series, detection with antibody 2B2
[10] = molecular target: B1; experiment: ELISA, tPA immobilized, β2gpi concentration series, detection with antibody 2B2
[11] = molecular target: T1, human amyloid-β peptide Aβ(1-40); experiment: ELISA, coated ligand, FXII concentration series, 10 mM εACA
Source text: (§1) Wells were coated in triplicate. […] Ten μg of the peptides that contain cross-β structure, as well as the negative control peptide MΔIAPP and phosphate-buffered saline (PBS), were spotted in duplicate onto methanol-activated nitrocellulose.

[12] = molecular target: B3; experiment: as above
Source text: as §1

[13] = molecular target: B8; experiment: ELISA, 25 µg/ml peptide immobilized, excess εACA, anti-GST detection
[14] = molecular target: B1; experiment: ELISA, 25 µg/ml peptide immobilized on Exiqon plates
[15] = molecular target: B3; experiment: dot blot, 10 µg peptide spotted, 2 nM FXII
Source text: Ten μg of the peptides that contain cross-β structure, as well as the negative control peptide mΔIAPP and phosphate-buffered saline (PBS), were spotted in duplicate.

[16] = molecular target: T1, human amyloid-β peptide Aβ(1-40); experiment: ELISA, Aβ coated on plate, plasmin overlaid
[17] = molecular target: T1, human amyloid-β peptide Aβ(1-40); experiment: ELISA, coated ligand, anti-GST detection
Experimental: FIG. 13. […] “Control,” medium before the pull-down, “Aβ,” washed amyloid Aβ pellet, after the pull-down, “Sup,” medium after extraction with Aβ. […] MΔIAPP was coated as non-amyloid negative control (Panel E). […] The same sections were incubated with Congo red (Panels I, K, and M) to locate amyloid deposits. Panels N and O: Pull-down assay with insoluble Aβ fibrils and finger domains. […] “Control,” medium before the pull-down, “Aβ,” washed amyloid Aβ pellet, after the pull-down, “Sup,” medium after extraction with Aβ.

[18] = molecular target: T1, human amyloid-β peptide Aβ(1-40); experiment: ELISA, 25 µg/ml peptide immobilized, excess εACA, anti-GST detection
[19] = molecular target: T1, human amyloid-β peptide Aβ(1-40); experiment: pull-down with Aβ fibrils, Western blot
Experimental: “Control,” medium before the pull-down, “Aβ,” washed amyloid Aβ pellet, after the pull-down, “Sup,” medium after extraction with Aβ. […] MΔIAPP was coated as non-amyloid negative control (Panel E). […] The same sections were incubated with Congo red (Panels I, K, and M) to locate amyloid deposits. Panels N and O: Pull-down assay with insoluble Aβ fibrils and finger domains. […] “Control,” medium before the pull-down, “Aβ,” washed amyloid Aβ pellet, after the pull-down, “Sup,” medium after extraction with Aβ.
Conditioned medium was used for pull-down assays using Aβ and IAPP fibrils, followed by Western blot analyses.

With B1 the Kd [1] was ~7 nM, the Kd [2] was 1 nM and the Kd [3] was 46 nM. It also gave a Kd [4] of 50 nM and a Kd [5] of 2 nM.

YTIAALLSPYS [amyloid fragment of transthyretin (TTR11)]: binds [6]; binds [7]; binds [8].

B2: recombinant human β2-glycoprotein I (expressed in insect cells) (other, UniProt P02749 20-345, looked up)
chain: GRTCPKPDDLPFSTVVPLKTFYEPGEEITYSCKPGYVSRGGMRKFICPLTGLWPINTLKCTPRVCPFAGILENGAVRYTTFEYPNTISFSCNTGFYLNGADSAKCTEEGKWSPELPVCAPIICPPPSIPTFATLRVYKPSAGNNSLYRDTAVFECLPQHAMFGNDTITCTTHGNWTKLPECREVKCPFPSRPDNGFVNYPAKPTLYYKDKATFGCHDGYSLDGPEEIECTKLGNWSAMPSCKASCKVPVKKATVVYQGERVKIQEKFKNGMLHGDKVSFFCKNKEKKCSYTEDAQCIDGTIEVPKCFKEHSSLAFWKTDASDVKPC
notes: also called recombinant β2gpi; rβ2gpi
For B2, the Kd [9] was 0.9 µg/mL and 20 nM and the Kd [10] was 2.3 µg/mL and 51 nM.

In the case of B3, the Kd [11] is reported as ~2 nM.

B4: fibrin peptide 85 (FP13), human fibrin α-chain fragment α148-160 (peptide)
peptide: KRLEVDIDIKIRS
notes: also called fibrin fragment α147-159 FP13
With B4 the Kd [12] was ~11 nM, the Kd [13] was 2 nM and the Kd [14] was 5 nM.

B5: human IAPP amyloid core fragment (ΔhIAPP) (peptide)
peptide: SNNFGAILSS
notes: also called hΔIAPP; human amylin fragment
B5: binds [15].

B6: plasmin (activated plasminogen) (enzyme, UniProt P00747 97-810, looked up)
chain: KVYLSECKTGNGKNYRGTMSKTKNGITCQKWSSTSPHRPRFSPATHPSEGLEENYCRNPDNDPQGPWCYTTDPEKRYDYCDILECEEECMHCSGENYDGKISKTMSGLECQAWDSQSPHAHGYIPSKFPNKNLKKNYCRNPDRELRPWCFTTDPNKRWELCDIPRCTTPPPSSGPTYQCLKGTGENYRGNVAVTVSGHTCQHWSAQTPHTHNRTPENFPCKNLDENYCRNPDGKRAPWCHTTNSQVRWEYCKIPSCDSSPVSTEQLAPTAPPELTPVVQDCYHGDGQSYRGTSSTTTTGKKCQSWSSMTPHRHQKTPENYPNAGLTMNYCRNPDADKGPWCFTTDPSVRWEYCNLKKCSGTEASVVAPPPVVLLPDVETPSEEDCMFGNGKGYRGKRATTVTGTPCQDWAAQEPHRHSIFTPETNPRAGLEKNYCRNPDGDVGGPWCYTTNPRKLYDYCDVPQCAAPSFDCGKPQVEPKKCPGRVVGGCVAHPHSWPWQVSLRTRFGMHFCGGTLISPEWVLTAAHCLEKSPRPSSYKVILGAHQEVNLEPHVQEIEVSRLFLEPTRKDIALLKLSSPAVITDKVIPACLPSPNYVVADRTECFITGWGETQGTFGAGLLKEAQLPVIENKVCNRYEFLNGRVQSTELCAGHLAGGTDSCQGDSGGPLVCFEKDKYILQGVTSWGLGCARPNKPGVYVRVSRFVTWIEGVMRNN
Work on B6 yielded a Kd [16] of 47 nM.

B7: tPA-F-GST (finger domain of human tPA with C-terminal GST tag) (other, UniProt P00750 36-85, looked up)
chain: SYQVICRDEKTQMIYQQHQSWLRPVLRSNRVEYCWCNSGRAQCHSVPVKS
notes: range 1-50; Expressed in 293T or BHK cells; Residues 1-50 count on mature tPA, not on the SwissProt precursor; also called tPA-F domain; F-tPA; not shown: (G)RP vector residues and thrombin cleavage site between domain and GST; Schistosoma japonicum glutathion-S-transferase (GST) tag
B7: binds [17].

B8 gave a Kd [18] of 2 nM.

AASIKVAVSADR [laminin α1-chain(2097-2108) amyloid core peptide (LAM12)]: binds [6]; binds [8].

B9: tPA K1-GST (kringle 1 domain of human tPA with C-terminal GST tag) (other, UniProt P00750 123-210, looked up)
chain: TRATCYEDQGISYRGTWSTAESGAECTNWNSSALAQKPYSGRRPDAIRLGLGNHNYCRNPDRDSKPWCYVFKAGKYSSEFCSTPACSE
notes: domain: K1; not shown: vector residues and thrombin cleavage site; Schistosoma japonicum glutathion-S-transferase (GST) tag
B9: no binding [19].

Source: patent publication US20090202980A1 (CROSSBETA BIOSCIENCES B V, published 2009)
